From the supplement of paper PMC9112550, “Optimization of the antimicrobial peptide Bac7 by deep mutational scanning” (BMC Biology, 2022)

System: Escherichia coli TOP10
Assay: shrunken log2 fold change of peptide-encoding DNA abundance (4.5 h post-induction vs induction); higher = less antimicrobial activity (less host growth inhibition)
Conditions: time post-induction: 4.5 h; library: site-saturation at positions 5, 18, 19, 20
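Further: peptides expressed intracellularly from a pBAD plasmid library in pooled LB shake-flask culture, induced with 0.3% L-arabinose, DNA abundance read by NGS, three biological replicates, DESeq2 with apeglm shrinkage.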

How did the “shrunken log2 fold change” value turn out when RRIRPRPPRLPRPRPRPRLSPRP was run?
The value was 0.306.

For RRIRPRPPRLPRPRPRPRMDPRP, which “shrunken log2 fold change” value is on record?
Its value is 0.176.

RRIRPRPPRLPRPRPRPRNDPRP was tested. Which “shrunken log2 fold change” value did it give?
The value was -0.479.

RRIRPRPPRLPRPRPRPRNHPRP was tested. Which “shrunken log2 fold change” value did it give?
Its value is -0.196.

With RRIRPRPPRLPRPRPRPRNKPRP as the sequence, how does the “shrunken log2 fold change” value read?
The value was -0.136.

With RRIRPRPPRLPRPRPRPRNNPRP as the sequence, how does the “shrunken log2 fold change” value read?
The value was -0.228.

With RRIRPRPPRLPRPRPRPRPFPRP as the sequence, how does the “shrunken log2 fold change” value read?
Its value is 0.248.

RRIRPRPPRLPRPRPRPRQLPRP was tested. Which “shrunken log2 fold change” value did it give?
Its value is 0.247.

For RRIRPRPPRLPRPRPRPRSFPRP, which “shrunken log2 fold change” value is on record?
Its value is 0.0582.

RRIRPRPPRLPRPRPRPRSQPRP was tested. Which “shrunken log2 fold change” value did it give?
Its value is 0.263.

With RRIRPRPPRLPRPRPRPRTMPRP as the sequence, how does the “shrunken log2 fold change” value read?
Its value is 0.276.

Which “shrunken log2 fold change” value does the source give for RRIRPRPPRLPRPRPRPRTPPRP here?
The value was 0.536.

RRIRPRPPRLPRPRPRPRVMPRP was tested. Which “shrunken log2 fold change” value did it give?
The value was 0.327.

For RRIRPRPPRLPRPRPRPRYMPRP, which “shrunken log2 fold change” value is on record?
The value was -0.213.

With RRIRPRPPRLPRPRPRPSDPPRP as the sequence, how does the “shrunken log2 fold change” value read?
The value was -0.184.

How did the “shrunken log2 fold change” value turn out when RRIRPRPPRLPRPRPRPSDSPRP was run?
Its value is -0.361.

For RRIRPRPPRLPRPRPRPSFVPRP, which “shrunken log2 fold change” value is on record?
Its value is -0.436.

RRIRPRPPRLPRPRPRPSGQPRP was tested. Which “shrunken log2 fold change” value did it give?
The value was -0.0898.

Which “shrunken log2 fold change” value does the source give for RRIRPRPPRLPRPRPRPSGSPRP here?
The value was 0.0191.

RRIRPRPPRLPRPRPRPSHKPRP was tested. Which “shrunken log2 fold change” value did it give?
The value was -0.0374.

Which “shrunken log2 fold change” value does the source give for RRIRPRPPRLPRPRPRPSICPRP here?
Its value is -0.718.

Which “shrunken log2 fold change” value does the source give for RRIRPRPPRLPRPRPRPSKIPRP here?
The value was -0.129.

Which “shrunken log2 fold change” value does the source give for RRIRPRPPRLPRPRPRPSKVPRP here?
The value was -0.223.

RRIRPRPPRLPRPRPRPSLPPRP was tested. Which “shrunken log2 fold change” value did it give?
Its value is -0.187.

Which “shrunken log2 fold change” value does the source give for RRIRPRPPRLPRPRPRPSMFPRP here?
The value was -0.437.

For RRIRPRPPRLPRPRPRPSNIPRP, which “shrunken log2 fold change” value is on record?
The value was -1.15.

For RRIRPRPPRLPRPRPRPSNSPRP, which “shrunken log2 fold change” value is on record?
The value was -0.794.

For RRIRPRPPRLPRPRPRPSNYPRP, which “shrunken log2 fold change” value is on record?
Its value is -0.733.

For RRIRPRPPRLPRPRPRPSPAPRP, which “shrunken log2 fold change” value is on record?
The value was 0.209.

With RRIRPRPPRLPRPRPRPSSFPRP as the sequence, how does the “shrunken log2 fold change” value read?
Its value is -0.345.

RRIRPRPPRLPRPRPRPSSGPRP was tested. Which “shrunken log2 fold change” value did it give?
The value was -0.494.

RRIRPRPPRLPRPRPRPSSTPRP was tested. Which “shrunken log2 fold change” value did it give?
Its value is -0.315.

With RRIRPRPPRLPRPRPRPSSVPRP as the sequence, how does the “shrunken log2 fold change” value read?
Its value is 0.0854.

Which “shrunken log2 fold change” value does the source give for RRIRPRPPRLPRPRPRPSSYPRP here?
Its value is -0.197.

How did the “shrunken log2 fold change” value turn out when RRIRPRPPRLPRPRPRPSTPPRP was run?
The value was -0.0766.

RRIRPRPPRLPRPRPRPSWRPRP was tested. Which “shrunken log2 fold change” value did it give?
Its value is -0.0524.

Which “shrunken log2 fold change” value does the source give for RRIRPRPPRLPRPRPRPTALPRP here?
Its value is 0.0271.

How did the “shrunken log2 fold change” value turn out when RRIRPRPPRLPRPRPRPTCIPRP was run?
The value was -0.146.

With RRIRPRPPRLPRPRPRPTDQPRP as the sequence, how does the “shrunken log2 fold change” value read?
Its value is 0.399.

Which “shrunken log2 fold change” value does the source give for RRIRPRPPRLPRPRPRPTEAPRP here?
Its value is -0.258.

With RRIRPRPPRLPRPRPRPTERPRP as the sequence, how does the “shrunken log2 fold change” value read?
The value was 0.649.

How did the “shrunken log2 fold change” value turn out when RRIRPRPPRLPRPRPRPTGAPRP was run?
Its value is 0.55.

With RRIRPRPPRLPRPRPRPTGHPRP as the sequence, how does the “shrunken log2 fold change” value read?
Its value is 0.0828.

With RRIRPRPPRLPRPRPRPTHLPRP as the sequence, how does the “shrunken log2 fold change” value read?
The value was 0.23.

Which “shrunken log2 fold change” value does the source give for RRIRPRPPRLPRPRPRPTLSPRP here?
Its value is 0.421.

With RRIRPRPPRLPRPRPRPTMFPRP as the sequence, how does the “shrunken log2 fold change” value read?
Its value is -0.164.

For RRIRPRPPRLPRPRPRPTNSPRP, which “shrunken log2 fold change” value is on record?
The value was -0.195.

Which “shrunken log2 fold change” value does the source give for RRIRPRPPRLPRPRPRPTNWPRP here?
The value was 0.214.

Which “shrunken log2 fold change” value does the source give for RRIRPRPPRLPRPRPRPTPAPRP here?
The value was 0.618.

How did the “shrunken log2 fold change” value turn out when RRIRPRPPRLPRPRPRPTPKPRP was run?
The value was 0.528.

RRIRPRPPRLPRPRPRPTPTPRP was tested. Which “shrunken log2 fold change” value did it give?
Its value is 0.483.

Which “shrunken log2 fold change” value does the source give for RRIRPRPPRLPRPRPRPTRCPRP here?
Its value is 0.279.

For RRIRPRPPRLPRPRPRPTRHPRP, which “shrunken log2 fold change” value is on record?
Its value is 0.43.

How did the “shrunken log2 fold change” value turn out when RRIRPRPPRLPRPRPRPTSDPRP was run?
The value was 0.0712.

For RRIRPRPPRLPRPRPRPTSSPRP, which “shrunken log2 fold change” value is on record?
The value was 0.0475.

How did the “shrunken log2 fold change” value turn out when RRIRPRPPRLPRPRPRPTTNPRP was run?
The value was 0.199.

RRIRPRPPRLPRPRPRPTTPPRP was tested. Which “shrunken log2 fold change” value did it give?
Its value is 0.322.

RRIRPRPPRLPRPRPRPTTYPRP was tested. Which “shrunken log2 fold change” value did it give?
The value was -0.141.

How did the “shrunken log2 fold change” value turn out when RRIRPRPPRLPRPRPRPTVHPRP was run?
The value was -0.0233.

For RRIRPRPPRLPRPRPRPTWQPRP, which “shrunken log2 fold change” value is on record?
Its value is 0.543.

How did the “shrunken log2 fold change” value turn out when RRIRPRPPRLPRPRPRPTYGPRP was run?
Its value is -0.171.

Which “shrunken log2 fold change” value does the source give for RRIRPRPPRLPRPRPRPTYMPRP here?
Its value is -0.0483.

Which “shrunken log2 fold change” value does the source give for RRIRPRPPRLPRPRPRPTYTPRP here?
Its value is -0.272.

How did the “shrunken log2 fold change” value turn out when RRIRPRPPRLPRPRPRPVAAPRP was run?
Its value is 0.406.

RRIRPRPPRLPRPRPRPVDDPRP was tested. Which “shrunken log2 fold change” value did it give?
Its value is 0.103.

With RRIRPRPPRLPRPRPRPVDYPRP as the sequence, how does the “shrunken log2 fold change” value read?
The value was 0.0307.

How did the “shrunken log2 fold change” value turn out when RRIRPRPPRLPRPRPRPVEAPRP was run?
The value was 0.481.

For RRIRPRPPRLPRPRPRPVEVPRP, which “shrunken log2 fold change” value is on record?
The value was -0.0864.

For RRIRPRPPRLPRPRPRPVFDPRP, which “shrunken log2 fold change” value is on record?
The value was 0.342.

For RRIRPRPPRLPRPRPRPVFLPRP, which “shrunken log2 fold change” value is on record?
Its value is -0.128.

With RRIRPRPPRLPRPRPRPVFSPRP as the sequence, how does the “shrunken log2 fold change” value read?
Its value is -0.00413.

With RRIRPRPPRLPRPRPRPVGLPRP as the sequence, how does the “shrunken log2 fold change” value read?
Its value is 0.478.

For RRIRPRPPRLPRPRPRPVHMPRP, which “shrunken log2 fold change” value is on record?
Its value is 0.215.

With RRIRPRPPRLPRPRPRPVIHPRP as the sequence, how does the “shrunken log2 fold change” value read?
The value was -0.435.

RRIRPRPPRLPRPRPRPVLYPRP was tested. Which “shrunken log2 fold change” value did it give?
The value was -0.335.
